In publication PMC12748791 (Nature Communications, 2025):

Target: the molecule itself
Assay: cryo-EM structure; full-length AE1 from DSP-cross-linked human erythrocyte ghost membranes in MSP-1E3D1/POPC nanodiscs; dimer configurations IF1/OF, OF/OF and IF1/IF2 separated by 3D classification

B1: Anion Exchanger 1 (AE1) (natural protein, human, UniProt P02730 1-911, looked up)
chain: MEELQDDYEDMMEENLEQEEYEDPDIPESQMEEPAAHDTEATATDYHTTSHPGTHKVYVELQELVMDEKNQELRWMEAARWVQLEENLGENGAWGRPHLSHLTFWSLLELRRVFTKGTVLLDLQETSLAGVANQLLDRFIFEDQIRPQDREELLRALLLKHSHAGELEALGGVKPAVLTRSGDPSQPLLPQHSSLETQLFCEQGDGGTEGHSPSGILEKIPPDSEATLVLVGRADFLEQPVLGFVRLQEAAELEAVELPVPIRFLFVLLGPEAPHIDYTQLGRAAATLMSERVFRIDAYMAQSRGELLHSLEGFLDCSLVLPPTDAPSEQALLSLVPVQRELLRRRYQSSPAKPDSSFYKGLDLNGGPDDPLQQTGQLFGGLVRDIRRRYPYYLSDITDAFSPQVLAAVIFIYFAALSPAITFGGLLGEKTRNQMGVSELLISTAVQGILFALLGAQPLLVVGFSGPLLVFEEAFFSFCETNGLEYIVGRVWIGFWLILLVVLVVAFEGSFLVRFISRYTQEIFSFLISLIFIYETFSKLIKIFQDHPLQKTYNYNVLMVPKPQGPLPNTALLSLVLMAGTFFFAMMLRKFKNSSYFPGKLRRVIGDFGVPISILIMVLVDFFIQDTYTQKLSVPDGFKVSNSSARGWVIHPLGLRSEFPIWMMFASALPALLVFILIFLESQITTLIVSKPERKMVKGSGFHLDLLLVVGMGGVAALFGMPWLSATTVRSVTHANALTVMGKASTPGAAAQIQEVKEQRISGLLVAVLVGLSILMEPILSRIPLAVLFGIFLYMGVTSLSGIQLFDRILLLFKPPKYHPDVPYVKRVKTWRMHLFTGIQIICLAVLWVVKSTPASLALPFVLILTVPLRRVLLPLIFRNVELQCLDADDAKATFDEEEGRDEYDEVAMPV
modifications: N-linked glycosylation at N642; lysines cross-linked with DSP (K539 and K851)
notes: Anion exchanger 1 (band 3), human, 911 residues: cytosolic domain 1-347, linker 348-370, transmembrane domain 371-911; the full-length protein was purified, only the transmembrane domain was resolved in the maps; Native protein from red blood cells; held in lipid nanodiscs (MSP-1E3D1, POPC) with PIP2 and POPC lipids at the dimer interface; also called band 3; SLC4A1
In the case of B1, the “stoichiometry N” value is reported as 2.
